{"source": "patent US20020048812A1", "about": "“Isolation and in vitro differentiation of conditionally immortalized murine olfactory receptor neurons” (priority 2000, published 2002)", "key": {"[1]": {"tested_on": "NST+ cells in the heterogeneous culture", "experiment": "Counting NST+ cells (anti-NST labeling) in heterogeneous olfactory cell cultures with growth factors", "type": "cell-based, mouse", "conditions": "for Normalized # of NST+ Cells: 100 ng.ml^−1", "protocol": "FIG. 2A. Interferon causes a significant, dose-dependent increase in the number of NST+ cells in the heterogeneous culture, with an EC50 of 0.4 U.ml^−1. Cells were incubated at 33° C. and were stained with anti-NST and rhodamine-coupled secondary antibodies seven days after plating. Cell counts were obtained from ten randomly selected areas in each experiment. Data were normalized to the mean number of NST+ cells in the absence of interferon and each point represents the mean ±S.E.M from three experiments.\nFIG. 2B. EGF (•) and NGF (□) both have mitogenic effects in permissive conditions over and above the effect of interferon. NST+ cells were counted as described in (A) and were normalized to baseline levels in the presence of interferon (40 U.ml^−1). […] Except for the presence of interferon (40 U.ml^−1), all experimental conditions were as in A.\nTo determine the optimal conditions for cell survival, growth, differentiation and maturation, cells were cultured in permissive and non-permissive conditions in the presence of interferon, EGF, NGF, BDNF and NT-3. […] The effects of EGF, NGF, BDNF and NT-3 on cell maturation in non-permissive culture conditions were\nTo keep the amount of expressed TAg to the minimum required for immortalization (Noble et al., 1995), heterozygous offspring from homozygous male H-2K^b-tsA58 transgenic and C57B1 female mice (Charles River Laboratories, Wilmington Mass., and Jackson Laboratory, Bar Harbor, Me., respectively) were used to generate the conditionally immortal neuronal cell culture. Cells were isolated in a procedure modified from a previously established technique (Ronnett et al., 1991). Briefly, post-natal day 1-3 animals were decapitated and the heads were sectioned longitudinally. The olfactory epithelium and nasal septum were removed and placed in an Eppendorf tube containing 500 μl culture medium. The culture medium consisted of Minimum Essential Medium in which the L-valine has been replaced by D-valine (MDV). This was supplemented with 10% fetal bovine serum (FBS), 4 mM glutamine, kanamycin (100 μg.ml^−1), gentamicin (50 U.ml^−1) and amphotericin B (2.5 μg.ml^−1; all from Gibco BRL, Gaithersburg, Md.). The MDV medium was chosen because fibroblasts lack D-amino acid oxidase and the reduction of L-valine inhibits fibroblast survival and growth (Gilbert et al., 1986). Tissue was centrifuged at low speed for two minutes and then most of the medium was removed. The cell pellet was chopped briefly with a pair of fine-point scissors before being resuspended in supplemented cell culture medium. The resultant cell clumps and cell suspension were plated out onto 2- or 4-chamber glass slides (Nunc, Naperville, Ill.) or plastic dishes (Fisher Scientific, Pittsburgh, Pa.). To enhance ORN adhesion, all cell culture materials were pretreated with laminin (0.125 mg.ml^−1 in serum-free media, Collaborative Biomedical Products, Bedford, Mass.) for at least 12 hours, prior to plating. Cells were maintained in culture at 33° C. (the permissive temperature for the SV40 TAg) and, to stimulate transcription of the transgene, the culture medium was supplemented with murine γ-interferon (40 U.ml^−1, Genzyme, Cambridge, Mass.). Provisionally, in permissive conditions, the cell culture medium was supplemented with epidermal growth factor (EGF, 20 ng.ml^−1, Gibco BRL) and 2.5 S nerve growth factor (NGF, 10 ng.ml^−1, Gibco BRL) before thorough characterizations of their effects were made in later experiments.\nTo determine optimum conditions for cell survival, growth, differentiation or maturation, numerous combinations of culture conditions were tested. These included i) removal of the olfactory epithelium from newborn, 4-week-old, and sexually mature animals, ii) subjecting tissue to digestion by trypsin (Gibco BRL, 0.5 g.l^−1 for 60 minutes at 37° C.), iii) addition of growth factors to the culture medium and iv) the use of diverse culture media. […]"}, "[2]": {"tested_on": "olfactory marker protein (OMP)", "experiment": "OMP expression by Western blot in cells in non-permissive conditions", "type": "cell-based, mouse", "conditions": "37° C., heterogeneous cell cultures, 15 μg protein per lane", "protocol": "FIG. 2C. Effects of EGF, NGF, BDNF and NT-3 on OMP expression as determined by Western blot. Cells were maintained in non-permissive conditions at 37° C. in the absence of growth factors (C) or in presence of EGF (E), NGF (N), BDNF (B) or NT-3 (3). Samples were isolated from the heterogeneous cell cultures and from olfactory tissue (T), and were separated on a SDS-polyacrylamide gel (15 μg protein per lane). OMP is a 19 kD protein and, in situ, is expressed only in mature olfactory receptor neurons. OMP was not detected in control cells (C), cultured in the absence of growth factors or in cells incubated in the presence of EGF.\nassayed by Western blot detection of olfactory marker protein (OMP), a marker of mature olfactory receptor neurons (Margolis, 1988).\nCells were always maintained in permissive culture conditions except when attempts were made to obtain a differentiated phenotype through transgene inactivation. In this case, cells were incubated in non-permissive culture conditions, i.e. at 37° C. in γ-interferon-free media for seven days, before the effects of transgene inactivation were determined. The effects of EGF, NGF, BDNF and NT-3 in promoting cell maturation/differentiation were assessed and, based on those experiments, BDNF and NT-3 were routinely added to the culture medium for cells in non-permissive culture conditions. In both culture environments, the air was kept humidified and contained 5% CO2.\nCells were scraped into a cold isolation buffer containing 20 mM Na(N-tris[hydroxymethyl]methyl-2-aminoethanesulfonic acid) (Na TES), 10 mM mannitol and 1% Triton X-100 at pH 7.4. The isolation buffer was supplemented with phenylmethylsulfonyl fluoride (30 μg.ml^−1), leupeptin (2 μg.ml^−1), benzamidine (16 μg.ml^'1), pepstatin (2 μg.ml^−1), and lima bean trypsin inhibitor (50 μg.ml^−1) to prevent protease activity. After five freeze/thaw cycles, cell extracts were centrifuged at 2,000 g for 5 minutes to pellet nuclei and cell debris. […]"}}, "note": "Entries after “also recorded” stand apart in the source; their conditions may differ."}
{"molecule": "NT-3: neurotrophin-3 (Peprotech) (protein, UniProt P20783 139-257, looked up, Neurotrophin-3) Neurotrophin-3: YAEHKSHRGEYSVCDSESLWVTDKSSAIDIRGHQVTVLGEIKTGNSPVKQYFYETRCKEARPVKNGCRGIDDKHWNSQCKTSQTYVRALTSENNKLVGWRWIRIDTSCVCALSRKIGRT", "values": [{"measurement": "Normalized # of NST+ Cells", "setting": "[1]; 33° C., in the presence of 40 U.ml^−1 interferon, normalized to that point", "value": "0.8 ± 0.1"}, {"measurement": "Normalized # of NST+ Cells", "setting": "[1]; 37° C.", "value": "1.4 ± 0.1"}, {"measurement": "Effect on the number of NST+ cells (in words)", "setting": "[1]; permissive conditions (33° C.)", "value": "no effect"}, {"measurement": "OMP expression detected by Western blot (in words)", "setting": "[2]", "value": "significant expression of OMP could be observed; also recorded: greater from cells incubated with NT-3 than with BDNF; also recorded: most readily detected"}]}
